Results from patent publication US20240010735A1 (EISAI R AND D MANAGEMENT, published 2024).

Assays:
Test in all cases: ELISA: SEAP-His proteins (1 nM) captured on anti-6-His antibody, antibody B 10 µg/mL with human IgG 100 µg/mL, HRP anti-human IgG, OD450 as % of human EphA4-SEAP-His
[1] = biological target: T1, human EphA3 extracellular region-SEAP-His protein (human, UniProt P29320 21-541)
T1 construct: extracellular domain; also called Eph receptor extracellular region-SEAP-His protein; not shown: secretory alkaline phosphatase (SEAP); histidine tag
T1 sequence (looked up): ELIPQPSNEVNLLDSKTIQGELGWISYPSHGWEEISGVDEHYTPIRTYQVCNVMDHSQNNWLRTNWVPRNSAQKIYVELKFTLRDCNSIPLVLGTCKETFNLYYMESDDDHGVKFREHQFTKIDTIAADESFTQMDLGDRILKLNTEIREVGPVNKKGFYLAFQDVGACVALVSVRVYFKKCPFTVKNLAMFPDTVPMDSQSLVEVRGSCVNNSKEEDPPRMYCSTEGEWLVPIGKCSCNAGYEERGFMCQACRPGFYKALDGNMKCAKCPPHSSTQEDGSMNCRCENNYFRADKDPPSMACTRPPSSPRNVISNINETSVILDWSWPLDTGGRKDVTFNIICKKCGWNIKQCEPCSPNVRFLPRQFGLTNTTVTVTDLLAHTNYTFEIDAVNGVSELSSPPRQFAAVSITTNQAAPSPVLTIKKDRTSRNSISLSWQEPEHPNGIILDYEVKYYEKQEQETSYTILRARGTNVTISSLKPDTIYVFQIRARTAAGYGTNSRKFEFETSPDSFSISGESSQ

[2] = biological target: T2, human EphA7 extracellular region-SEAP-His protein (human, UniProt Q15375 28-555)
T2 construct: extracellular domain; also called Eph receptor extracellular region-SEAP-His protein; not shown: secretory alkaline phosphatase (SEAP); histidine tag
T2 sequence (looked up): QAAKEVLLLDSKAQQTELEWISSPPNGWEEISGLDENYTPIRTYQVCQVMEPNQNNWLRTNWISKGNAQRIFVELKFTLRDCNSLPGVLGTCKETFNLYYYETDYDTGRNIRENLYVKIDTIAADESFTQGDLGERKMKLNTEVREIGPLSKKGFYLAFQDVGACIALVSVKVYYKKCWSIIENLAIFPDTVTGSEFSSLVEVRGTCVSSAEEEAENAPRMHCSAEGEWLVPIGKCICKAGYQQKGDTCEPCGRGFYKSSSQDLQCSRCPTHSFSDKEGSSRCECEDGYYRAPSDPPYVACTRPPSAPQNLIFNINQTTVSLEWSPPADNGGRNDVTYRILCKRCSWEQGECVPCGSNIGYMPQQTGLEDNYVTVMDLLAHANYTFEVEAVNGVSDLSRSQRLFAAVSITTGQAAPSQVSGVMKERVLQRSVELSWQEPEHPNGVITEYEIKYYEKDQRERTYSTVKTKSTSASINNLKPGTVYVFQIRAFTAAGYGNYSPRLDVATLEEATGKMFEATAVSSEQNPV

[3] = biological target: T3, human EphB4 extracellular region-SEAP-His protein (human, UniProt P54760 16-539)
T3 construct: extracellular domain; also called Eph receptor extracellular region-SEAP-His protein; not shown: secretory alkaline phosphatase (SEAP); histidine tag
T3 sequence (looked up): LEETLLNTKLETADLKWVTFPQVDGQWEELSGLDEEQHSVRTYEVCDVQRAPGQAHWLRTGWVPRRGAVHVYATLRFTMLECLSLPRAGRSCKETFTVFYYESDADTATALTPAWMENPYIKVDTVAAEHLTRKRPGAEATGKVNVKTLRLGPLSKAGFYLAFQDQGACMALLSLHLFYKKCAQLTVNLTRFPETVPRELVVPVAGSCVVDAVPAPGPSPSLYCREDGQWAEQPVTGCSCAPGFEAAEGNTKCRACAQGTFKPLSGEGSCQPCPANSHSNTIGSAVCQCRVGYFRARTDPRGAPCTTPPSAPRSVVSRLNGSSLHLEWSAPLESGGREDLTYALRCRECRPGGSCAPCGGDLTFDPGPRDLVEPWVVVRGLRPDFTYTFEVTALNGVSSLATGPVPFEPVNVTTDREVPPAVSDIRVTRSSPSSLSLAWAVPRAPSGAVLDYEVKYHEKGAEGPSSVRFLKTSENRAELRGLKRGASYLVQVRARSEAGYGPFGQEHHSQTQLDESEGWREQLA

[4] = biological target: T4, human EphA2 extracellular region-SEAP-His protein (human, UniProt P29317 24-537)
T4 construct: extracellular domain; also called Eph receptor extracellular region-SEAP-His protein; not shown: secretory alkaline phosphatase (SEAP); histidine tag
T4 sequence (P29317 24-537): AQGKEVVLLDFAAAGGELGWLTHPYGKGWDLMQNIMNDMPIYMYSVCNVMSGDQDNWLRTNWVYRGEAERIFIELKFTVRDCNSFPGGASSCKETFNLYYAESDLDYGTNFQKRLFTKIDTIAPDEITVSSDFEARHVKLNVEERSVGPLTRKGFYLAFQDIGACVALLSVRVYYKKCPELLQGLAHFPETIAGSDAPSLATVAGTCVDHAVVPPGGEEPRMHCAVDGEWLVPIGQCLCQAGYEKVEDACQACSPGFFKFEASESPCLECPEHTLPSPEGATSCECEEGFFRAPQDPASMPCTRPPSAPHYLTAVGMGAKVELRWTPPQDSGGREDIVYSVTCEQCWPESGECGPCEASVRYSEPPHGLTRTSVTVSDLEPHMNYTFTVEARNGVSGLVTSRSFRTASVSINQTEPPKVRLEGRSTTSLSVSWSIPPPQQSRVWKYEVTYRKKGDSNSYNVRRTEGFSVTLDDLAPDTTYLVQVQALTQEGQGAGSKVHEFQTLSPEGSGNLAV

[5] = biological target: T5, human EphB6 extracellular region-SEAP-His protein (human, UniProt O15197 32-594)
T5 construct: extracellular domain; also called Eph receptor extracellular region-SEAP-His protein; not shown: secretory alkaline phosphatase (SEAP); histidine tag
T5 sequence (looked up): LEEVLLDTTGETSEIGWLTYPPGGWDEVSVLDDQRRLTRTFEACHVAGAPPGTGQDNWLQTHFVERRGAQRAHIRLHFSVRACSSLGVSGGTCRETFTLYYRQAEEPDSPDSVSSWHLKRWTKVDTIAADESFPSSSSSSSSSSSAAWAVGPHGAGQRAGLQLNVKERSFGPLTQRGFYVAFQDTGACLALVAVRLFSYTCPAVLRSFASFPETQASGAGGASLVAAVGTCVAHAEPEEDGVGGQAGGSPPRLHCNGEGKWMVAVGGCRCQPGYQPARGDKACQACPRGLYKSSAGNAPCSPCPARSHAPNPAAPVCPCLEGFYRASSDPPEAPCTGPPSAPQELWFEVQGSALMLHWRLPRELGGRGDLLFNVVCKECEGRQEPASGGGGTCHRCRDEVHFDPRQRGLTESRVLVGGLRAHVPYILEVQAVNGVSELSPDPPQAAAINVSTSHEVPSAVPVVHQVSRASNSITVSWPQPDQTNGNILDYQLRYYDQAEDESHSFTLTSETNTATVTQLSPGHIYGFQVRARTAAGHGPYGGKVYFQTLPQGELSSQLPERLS

Measured: binding result

B1: humanized anti-EphA4 monoclonal antibody (antibody B) (antibody, human IgG2, V domains shown)
VH: QVQLVESGGGVVQPGRSLRLSCAVSGFSLTRFGVHWVRQAPGKGLEWVAVIWRGGSTDYNAAFMSRLTISKDNSKNTVYLQMNSLRAEDTAVYYCAKESLFGVYYDYGYYSMDYWGQGTTVTVSS
VL: DIQMTQSPSSLSASVGDRVTITCRASQEISGYLSWLQQKPGKAPKRLIYAASTLDSGVPSRFSGSRSGTEYTLTISSLQPEDFATYYCLQYASYPLTFGGGTKVEIKR
notes: expressed in Expi293F cells; also called humanized antibody of antibody A; HK2-42 / L1-8
no binding (tested: 10 µg/mL): [1] | [2] | [3] | [4] | [5]
